B1: truncated TCblR 32-149 (receptor)
chain: not shown
notes: Secreted C-terminal deletion of the extracellular domain, expressed in HEK293 cells, used as culture medium; also called aa 150-233 deleted
B2: TCblR 32-137, 166-233-mycHis (receptor, not shown: small tags and cut ends)
chain: EAAASPLSTPTSAQAAGPSSGSCPPTKFQCRTSGLCVPLTWRCDRDLDCSDGSDEEECRIEPCTQKGQCPPPPGLPCPCTGVSDCSGGTDKKLRNCSRLACLAGELGCGTNEILPEGDATTMGPPVTLESVTSLRNATTMGPPVTLESVPSVGNATSSSAGDQSGSPTAYGVIA
notes: Secreted, expressed in HEK293 cells, used as culture medium; also called second LDLR-A domain removed
B5: recombinant extracellular domain of human TCblR (aa 32-233), untagged secreted form (receptor)
chain: EAAASPLSTPTSAQAAGPSSGSCPPTKFQCRTSGLCVPLTWRCDRDLDCSDGSDEEECRIEPCTQKGQCPPPPGLPCPCTGVSDCSGGTDKKLRNCSRLACLAGELRCTLSDDCIPLTWRCDGHPDCPDSSDELGCGTNEILPEGDATTMGPPVTLESVTSLRNATTMGPPVTLESVPSVGNATSSSAGDQSGSPTAYGVIA
notes: Expressed in HEK 293 cells and secreted into the culture medium; also called TCblR ECD; extracellular TCblR
B9: TCblR 32-52, 64-233-mycHis (receptor, not shown: small tags and cut ends)
chain: EAAASPLSTPTSAQAAGPSSGSGLCVPLTWRCDRDLDCSDGSDEEECRIEPCTQKGQCPPPPGLPCPCTGVSDCSGGTDKKLRNCSRLACLAGELRCTLSDDCIPLTWRCDGHPDCPDSSDELGCGTNEILPEGDATTMGPPVTLESVTSLRNATTMGPPVTLESVPSVGNATSSSAGDQSGSPTAYGVIA
notes: Secreted, expressed in HEK293 cells, used as culture medium; also called p53-63del; N-terminal 11 residues (aa 53-63) of the first LDLR-A domain deleted
B11: truncated TCblR 32-183 (receptor)
chain: not shown
notes: Secreted C-terminal deletion of the extracellular domain, expressed in HEK293 cells, used as culture medium; also called C-terminal 49 aa deleted (two N-glycosylation sites removed)

The target in test [1] is T1, TC-Cbl (recombinant human transcobalamin saturated with cobalamin) (human, UniProt P20062 19-427).
T1 construct: also called holo-TC; holoTc
T1 sequence (looked up): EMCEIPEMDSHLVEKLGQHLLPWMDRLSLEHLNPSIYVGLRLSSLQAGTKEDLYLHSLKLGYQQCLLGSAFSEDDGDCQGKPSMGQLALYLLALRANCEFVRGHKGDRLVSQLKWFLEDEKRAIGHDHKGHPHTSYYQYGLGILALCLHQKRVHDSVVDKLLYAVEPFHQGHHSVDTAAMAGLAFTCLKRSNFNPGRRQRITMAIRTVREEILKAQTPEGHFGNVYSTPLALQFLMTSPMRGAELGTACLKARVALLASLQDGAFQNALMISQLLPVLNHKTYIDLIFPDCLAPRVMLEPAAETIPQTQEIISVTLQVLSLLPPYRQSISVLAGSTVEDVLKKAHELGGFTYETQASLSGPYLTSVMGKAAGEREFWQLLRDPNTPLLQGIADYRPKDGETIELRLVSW
Nature of the test: radiolabelled TC-Cbl binding, indirect competition with full-length secreted TCblR.

Test [2] concerns the target T1, TC-Cbl (recombinant human …). Nature of the test: radiolabelled TC-Cbl binding to deletion constructs.
Test [3] addresses B1. Kind of test: sandwich ELISA, mAb as capture. For orientation: An ELISA detects its analyte on a solid surface through an enzyme-linked reagent.
In test [4] the target is B11. Nature of the test: sandwich ELISA, mAb as capture.
For test [5], the target named is T2, TCblR 32-233-mycHis (human, UniProt Q9NPF0 32-233).
T2 construct: Secreted, expressed in HEK293 cells, used as culture medium; also called extracellular TCblR in pcDNA3.1 (-) mycHisA
T2 sequence: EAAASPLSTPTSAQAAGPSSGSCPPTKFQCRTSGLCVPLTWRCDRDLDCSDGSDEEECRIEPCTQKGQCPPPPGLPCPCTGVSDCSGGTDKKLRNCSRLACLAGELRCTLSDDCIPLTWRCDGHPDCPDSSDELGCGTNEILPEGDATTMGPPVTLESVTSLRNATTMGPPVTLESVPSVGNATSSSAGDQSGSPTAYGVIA
Nature of the test: sandwich ELISA, mAb as capture, TCblR construct in HEK293 medium; +++ OD 2-3, ++ OD 1-2, + OD 0.5-1, - OD <0.5.

The target of test [6] is B5. Described as above.
Test [7] has as its target T3, TCblR 32-94, 142-233-mycHis (human, UniProt Q9NPF0 32-233).
T3 construct: also called TCblR without the CUB domain; region between the two LDLR-A domains deleted
The test is described as above.

Test [8] concerns the target B2. The test is described as above.
Test [9] concerns the target B9. Described as above.
Test [10] concerns the target T1, TC-Cbl (recombinant human …). Nature of the test: binding and internalization of TC-[57Co]Cbl by transfected HEK293 cells.
Test [11] shares this target. Kind of test: radiolabelled TC-Cbl binding, WGA-agarose separation.
The target is the same in test [12]. Nature of the test: radiolabelled TC-Cbl binding to mutated secreted receptor.
Test [13] deals with B2. Nature of the test: sandwich ELISA, mAb as capture.
Test [14] addresses B11. Kind of test: sandwich ELISA, mAb as capture, TCblR construct in HEK293 medium; +++ OD 2-3, ++ OD 1-2, + OD 0.5-1, - OD <0.5.

For the molecule B1, the binding result in [1] is recorded as “no binding”.

Turning to B2, the binding result in test [2] is recorded as “no binding”.

B3: mAb 1-19 (antibody, V domains shown)
VH: DVQLQESGPGLVKPSQSLSLTCTVLGYSITSDYAWNWIRQFPGNKLEWMGYISFSGNIRYNPSLESRISITRDTSKSQFFLQLNSVTTEDRGTYYCARAGLGRVFYFDYWGQGTALTVSS
VL: DIVMSQSPSSLAVSVGEKVTMSCKSSQSLLYSSNQKNYLAWYQQKPGQSPQLLIFRASTRESGVPDRFTGSGSGTDFTLTISSVKPEDLAVYFCQQYYNYPFTFGSGTTLEIK
notes: also called TCblRKB 1-19; monoclonal antibody 1-19
As to B3, the OD was less than 0.5 od in [3]; less than 0.5 od in test [4]; 2 to 3 od in [5]; 1 to 2 od in test [6]; 1 to 2 od in test [7]; 1 to 2 od in test [8]. In test [9], the OD was 2 to 3 od.

B4: TCblR with the cytoplasmic tail deleted, on HEK293 cells (receptor)
chain: EAAASPLSTPTSAQAAGPSSGSCPPTKFQCRTSGLCVPLTWRCDRDLDCSDGSDEEECRIEPCTQKGQCPPPPGLPCPCTGVSDCSGGTDKKLRNCSRLACLAGELRCTLSDDCIPLTWRCDGHPDCPDSSDELGCGTNEILPEGDATTMGPPVTLESVTSLRNATTMGPPVTLESVPSVGNATSSSAGDQSGSPTAYGVIAAAAVLSASLVTATLLLL
notes: Limits derived; also called TCblR without the cytoplasmic domain; membrane-anchored receptor
Regarding B4, the binding result in test [10] is “binds”.

For the molecule B5, the binding result in test [11] is “binds”.

B6: extracellular TCblR mycHis mutant pDE85, 86>LL (receptor, not shown: small tags and cut ends)
chain: EAAASPLSTPTSAQAAGPSSGSCPPTKFQCRTSGLCVPLTWRCDRDLDCSDGSLLEECRIEPCTQKGQCPPPPGLPCPCTGVSDCSGGTDKKLRNCSRLACLAGELRCTLSDDCIPLTWRCDGHPDCPDSSDELGCGTNEILPEGDATTMGPPVTLESVTSLRNATTMGPPVTLESVPSVGNATSSSAGDQSGSPTAYGVIA
notes: Made on the extracellular TCblR cDNA in pcDNA3.1 (-) mycHisA, expressed in HEK293 cells; also called D85L, E86L
For B6, in [12], the binding result is on record as “no binding”.

B7: extracellular TCblR mycHis mutant pDE163, 164>LL (receptor, not shown: small tags and cut ends)
chain: EAAASPLSTPTSAQAAGPSSGSCPPTKFQCRTSGLCVPLTWRCDRDLDCSDGSDEEECRIEPCTQKGQCPPPPGLPCPCTGVSDCSGGTDKKLRNCSRLACLAGELRCTLSDDCIPLTWRCDGHPDCPDSSLLLGCGTNEILPEGDATTMGPPVTLESVTSLRNATTMGPPVTLESVPSVGNATSSSAGDQSGSPTAYGVIA
notes: Made on the extracellular TCblR cDNA in pcDNA3.1 (-) mycHisA, expressed in HEK293 cells; also called D163L, E164L
With B7, the binding result in test [12] is recorded as “no binding”.

B8: mAb 1-25 (antibody, V domains shown)
VH: DVQLQESGPDLVKPSQSLSITCTVTGYSITSDYSWHWIRQFPGNKLEWMGYIHSSGITNYNPSLKSRISITRDTSKNQFFLHLSSMTNEDTATYYCTRPPVVTRYFDVWGAGTTVTVSS
VL: DIVMTQSPSSLTVTAGEKVTMSCKSSQGLLDSGNQKNYLTWYQQKPGQPPKLLIYWASTRKSGVPDRFTGSGSGTDFTLTISSVQAEDLAVYYCQNDYTYPLTFGAGTKLELK
notes: also called TCblRKB1-25
In the case of B8, the OD in test [3] is less than 0.5 od; in [13], less than 0.5 od; in test [5], 1 to 2 od; in test [14], 2 to 3 od; in [6], 1 to 2 od; in [7] it was 0.5 to 1 od. For the same molecule, the OD in test [9] lay within 2 to 3 od.

As for B9, the binding result in test [11] is reported as “no binding”.

B10: mAb 1-23 (antibody, V domains shown)
VH: DVQLQESGPGLVKPSQSLSLTCTVTGYSITSDYAWNWIRQFPGNKLEWMGYIAYTNRTFYTPSLESRISITRDTSKNQFFLQLNSVTTEDTGTYYCARNSGKTYGFTYWGQGTLVTVSA
VL: DIVMSQSPSSLVVSIGEKVTMSCKSSQRLLYSANQKNYLAWYQQKPGQSPKLLIYWASTRESGVPDRFTGSGSGTDFTLTISSVRAEDLALYYCQQFYNYPLTFGSGTKLEIK
Consider B10, for which the OD in test [3] was less than 0.5 od; in test [4] it was less than 0.5 od; in test [5], 1 to 2 od; in test [6] it was 1 to 2 od; in [7], 1 to 2 od; in test [8], 1 to 2 od. In test [9], the OD fell in the range of 1 to 2 od.

In the case of B11, the binding result in [1] is recorded as “binds”.

The values above are taken from US20130164309A1 (RESEARCH FOUNDATION OF STATE UNIVERSITY OF NEW YORK, published 2013).
